In the supplement of paper PMC9170038:

Tested on: MS2 coat protein
Assay: apparent KD of MS2 coat protein; designed switch direction (-1 OFF switch, 1 ON switch): 1; higher = weaker reporter binding
Summary of the method: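 Stalled E. coli RNA polymerase transcribed designed RNA switches on Illumina chips, which were then titrated with SNAP-549-labelled MS2 coat protein, doubling from 0.7 or 1.5 nM to 3 µM. Steps lasted from 0.8–1.5 h at the lowest concentration to 10–20 min at the highest. The apparent KD is each design's median over clusters of curve-fitted normalised fluorescence.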

[1] = Eterna round: R95, input ligand: FMN 200 uM
[2] = Eterna round: R95, input ligand: microRNA oligo, concentration not stated
[3] = Eterna round: R95, input ligand: none
[4] = input ligand: microRNA oligo, concentration not stated

Sequence	apparent KD of MS2 coat protein [1] [nM]	apparent KD of MS2 coat protein [2] [nM]	apparent KD of MS2 coat protein [3] [nM]	apparent KD of MS2 coat protein (input ligand: FMN 200 uM) [nM]	apparent KD of MS2 coat protein [4] [nM]	apparent KD of MS2 coat protein (input ligand: none) [nM]
GUAUAACAUGAGGAUCACCCAUGUCAUCUAAGUCGAGGAUAUGGGCAAAUAUAAUAAGAACCAGAAGGCGAAUAUG [Mat - Same State 1 - Mod of UCT - D34] (puzzle: Same State 1)	57.8	111	119	–	–	–
ACAUGAGAGAAAGGAUAUCAUGUACCUACAUGUGACAUGAGGAUCACCCAUGUGGUAAGUAUGAGUGAGAAGGUUCAGAUAUGU [Equivalence 34 - Jieux - Same State NG 2] (Eterna round: R96, puzzle: Same State NG 2)	–	–	–	44.4	298	448
UACAAUCUAUCUGAGGAUAUCAUGAAAAAAACAUGAGGAUCACCCAUGUGCAGGAAAACUGCAUAUGAGAAGGCAGAUAGAUUGG [salish99_SS2_r3_007] (Eterna round: R96, puzzle: Same State 2)	–	–	–	–	505	–
CCAGCUACUCACAUGAGGAUCACCCAUGUCUAGGAUAUAGUAGAGGAUAUUGGCGGAUGGAAGACCGAGAAGGCUACCUCCUGA [Eternabot solution 49] (Eterna round: R96, puzzle: Same State NG 3)	–	–	–	17.9	14.4	18.3
GCGGAACCUAACAUGAGGAUCACCCAUGUUCCGGAAACGGCACAGGAUAUCUGUCCGAAAAGGUCAGAGAAGGGUGAAAACCGC [Fiskers NG3ss - 95] (Eterna round: R96, puzzle: Same State NG 3)	–	–	–	131	307	390
UACAUACGCGGAGGAUAUGGGCGAGGCACGGAGGUCCGCGCCAAAACAUGAGGAUCACCCAUGUCCCAGAAGGCCGCACAAACU [Oreslaed] (Eterna round: R96, puzzle: Same State NG 2)	–	–	–	13.8	54.4	83.1
GGUCCAGCCUGAGCUGGACAAAAGCAUGUACAUGAGGAUCACCCAUGUUCAUGUACAAGCUUUUUGCUCGUCUUAUU [salish99_208a_r3_049] (puzzle: Sensor for hsa-mir-208a)	560	15.8	687	–	–	–
AAGGUCUUCGUACAGGAUAUGCACUUGUGCACAUGAGGAUCACCCAUGUGGGAAAAGGUCACAGGGCAGAAGGGUAUUUAUAAAA [Erriti] (puzzle: Same State 2)	39.4	66.6	103	–	–	–
AGGCUCAGACUAGGAUAUAUGUGGUCACAUGAGGAUCACCCAUGUCUCGAGCUUCGGCUCGAGGCAUAGAAGGAGUCUGAGCCA [SSNG2/5-D1] (Eterna round: R96, puzzle: Same State NG 2)	–	–	–	459	14	713
AGCUAUCGAAAACGAUAGCAAAGGCAUGUACAUGAGGAUCACCCAUGUCAUGUACAAGCUUUUUGCUCGUCUUAAAA [Zipper 23 - 3] (puzzle: Sensor for hsa-mir-208a)	799	15.9	983	–	–	–
CUCCUAUCGGGAGGAUAUGGUGCCUUGUUGGUGCUAGAAGGUCCAACAUGAGGAUCACCCAUGUGGGAGUGGUUGAGAGACCUC [SS NG10LRO13] (Eterna round: R96, puzzle: Same State NG 1)	–	–	–	131	105	137
UAAAUAAUGAUAGGAUAUACAUGAGGAAUCCUCGUAGAAGGAUCAUGACAUGAGGAUCACCCAUGUAACGCUCGAAAGAGCGUA [Mat - Same State NG 1 - JL mod - D44] (Eterna round: R96, puzzle: Same State NG 1)	–	–	–	485	265	219
UAUCUCAUGUAAGGAUAUGCAGCCGUUUCGGCUGCAGAAGGUACUAUAAUACAUGAGGAUCACCCAUGUCUCUAUUAUUUAGUU [JL SSNG1 1.45] (Eterna round: R96, puzzle: Same State NG 1)	–	–	–	57.6	45.7	63.8
CCGAUGAUAGGACAGGAUAUGACUGUCGUCACAUGAGGAUCACCCAUGUCCCGGCAAUGCCACCGUUAGAAGGGUCCCAUCUCGG [Uslainarin] (puzzle: Same State 2)	–	15.6	–	–	–	–
UGCAUACGCCUACAAGAGGAGUCCUGCAGACAUGAGGAUCACCCAUGUAACUCGAAUUCAGUUCGUUCGUCUGUCGU [JR_hsamir208a_Sub1412] (Eterna round: R96, puzzle: Sensor for hsa-mir-208a)	–	–	–	57	33.9	52.9
CCGCCGGGAACCCGGCGAAAACAUGAGGAUCACCCAUGUACACAGGAUAUCGUGACAUUAACAAACGAGAAGGGUGGCCGAGAC [Lelateen] (Eterna round: R96, puzzle: Same State NG 3)	–	–	–	453	189	182
GUGGUCAGACAUGAGGAUCACCCAUGUGGAAUAAAUAAGGAAAAGGAUAUCGAAUAUAGGAUAUACGAGAAGGUUUGGUUGGUG (Eterna round: R96, puzzle: Same State NG 3)	–	–	–	–	73.6	–
UGUUGUAUUACAGGAUAUCUAGUAUUUGUAUUUAGAGAAGGGUAUUCACAUGAGGAUCACCCAUGUAUAUACGAGGAAGUUGUG [JMF's solution 42] (Eterna round: R96, puzzle: Same State NG 1)	–	–	–	53.7	35.4	48.3
